Experimental findings from paper doi:10.1101/2024.03.27.586411 (2024) are described below.

The target in test [1] is PDCoV S_(SD2018) ectodomain trimer (Porcine deltacoronavirus (PDCoV), isolate SD2018/300). Briefly: cryo-EM structure; 1.5 uM PDCoV S SD2018/300 with 4.5 uM PD41 Fab, 1 hour at 4 C; 3D classification into four classes, local refinement of the RBD:PD41 region.
For test [2], the target named is human APN ectodomain, Fc fusion (human) (UniProt P15144). Briefly: BLI; RBD to hAPN-Fc, series from 5 uM two-fold down to 39 nM; apparent KD; Octet Red, 30 C, 10 x Kinetics Buffer; 1:1 binding model; who was immobilised is not told for this series. For orientation: BLI is a label-free optical method that tracks binding on a fibre tip over time.
Sequence of human APN ectodomain, Fc fusion (human) (P15144 66-967): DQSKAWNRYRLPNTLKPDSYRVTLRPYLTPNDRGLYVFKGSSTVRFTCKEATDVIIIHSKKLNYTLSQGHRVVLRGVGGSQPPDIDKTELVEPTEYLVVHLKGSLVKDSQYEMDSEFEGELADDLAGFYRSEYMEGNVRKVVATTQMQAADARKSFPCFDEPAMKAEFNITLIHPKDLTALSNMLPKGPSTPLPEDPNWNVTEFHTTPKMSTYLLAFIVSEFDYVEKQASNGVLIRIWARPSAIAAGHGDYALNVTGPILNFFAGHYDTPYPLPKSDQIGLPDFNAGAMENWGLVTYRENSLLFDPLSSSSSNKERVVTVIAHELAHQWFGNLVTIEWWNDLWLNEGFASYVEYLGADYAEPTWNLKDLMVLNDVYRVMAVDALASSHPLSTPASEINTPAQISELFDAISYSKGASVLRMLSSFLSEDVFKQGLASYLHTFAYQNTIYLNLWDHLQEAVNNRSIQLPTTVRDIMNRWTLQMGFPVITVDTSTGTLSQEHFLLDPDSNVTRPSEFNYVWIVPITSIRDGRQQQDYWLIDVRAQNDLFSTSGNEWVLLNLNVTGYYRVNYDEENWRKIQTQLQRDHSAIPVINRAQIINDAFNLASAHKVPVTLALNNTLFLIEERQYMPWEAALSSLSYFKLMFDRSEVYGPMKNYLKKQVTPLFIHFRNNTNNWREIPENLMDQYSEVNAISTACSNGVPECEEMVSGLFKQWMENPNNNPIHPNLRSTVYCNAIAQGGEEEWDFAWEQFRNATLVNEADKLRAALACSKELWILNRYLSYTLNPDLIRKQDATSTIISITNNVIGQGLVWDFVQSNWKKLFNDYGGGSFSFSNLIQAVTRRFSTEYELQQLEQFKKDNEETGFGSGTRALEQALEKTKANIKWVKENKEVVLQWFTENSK
For test [3], the target named is T1, PDCoV_(IL121_2014) receptor-binding domain (Porcine deltacoronavirus (PDCoV), …).
T1 chain: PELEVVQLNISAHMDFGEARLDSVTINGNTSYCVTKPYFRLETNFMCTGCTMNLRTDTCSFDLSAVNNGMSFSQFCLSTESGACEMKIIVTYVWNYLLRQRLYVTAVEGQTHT
Briefly: BLI.

Test [4] addresses T1, PDCoV_(IL121_2014) receptor-binding …. As to the kind of experiment: BLI.

“And” between values parts separate entries of the source, which are not always exact repeats. Identical values can stand only once.

Turning to “PDCoV S_(SD2018) ectodomain trimer (natural protein)”, in test [1], the stoichiometry N (commonly a count of units in the complex or per binding partner) came out at 3. As for “PDCoV SD2018/300 receptor-binding domain (domain or fragment)”, in test [2], the fold greater affinity than RBD (IL121 2014) amounted to 5 fold.

B1: PD33 Fab fragment (Fab, V domains shown)
VH: EVQLVESGGGLVQPGGSLRLSCAASGFTFSHYTMNWVRQAPGRGLEWVSSITTSSNFIYYADSVKGRFTISRDNTKNSLYLQMNSLSAEDTAVYFCARGGWELSYFDFWGQGTLVTVSS
VL: DIVMTQSPLSLPVTLGQPASISCRSSQSLVYSDGNTFLNWFQQRPGQSPRRLIYKVSNRDSGVPDRFSGSGSGTDFTLRISRVEAEDVGFYYCMQGTHWPPTFGPGTKVEIK
As to B1, binding in test [3] was put at a Kd of 4.36 nM. Besides, in test [4], the koff – broadly, the first-order rate constant of dissociation – is 0.000586 s⁻¹ and 0.000542 s⁻¹.

B2: PD41 Fab fragment (Fab, V domains shown)
VH: HSQLQESGPGLVKPSQTLSLTCTVSGGSISSAGYYWNWIRQHPGKGLEWIGYIYYSGNTYYNPSLKSRVTISVDTSKSQFSLKLNSVTAADTAVYYCARKIVNWFDPWGQGTLVTVSS
VL: QSALTQPASVSGSPGQSITISCTGTSSDVGGYNYVSWYQQHPGKAPKLMIYDVSERPSGVSNRFSGSKSGNTASLTISGLQAEDEADYFCCSYAGYTTYVVFGGGTQLTVL
Consider B2, for which the Kd (in general, the concentration at which binding is half-saturated) in test [3] is 22.6 nM and 37.2 nM. Besides, the koff in test [4] was 0.00177 s⁻¹ and 0.002 s⁻¹.
